# Patent US20050080013A1 (Pfizer, published 2005)
# Non-standard residues stand in square brackets, D forms with d. No end group written: not given here. Orn = NCCC[C@H](N)C(=O)O
# T1: lecithin:cholesterol acyltransferase (LCAT), purified from human plasma (human, UniProt P04180 25-440)
# T1 sequence (looked up): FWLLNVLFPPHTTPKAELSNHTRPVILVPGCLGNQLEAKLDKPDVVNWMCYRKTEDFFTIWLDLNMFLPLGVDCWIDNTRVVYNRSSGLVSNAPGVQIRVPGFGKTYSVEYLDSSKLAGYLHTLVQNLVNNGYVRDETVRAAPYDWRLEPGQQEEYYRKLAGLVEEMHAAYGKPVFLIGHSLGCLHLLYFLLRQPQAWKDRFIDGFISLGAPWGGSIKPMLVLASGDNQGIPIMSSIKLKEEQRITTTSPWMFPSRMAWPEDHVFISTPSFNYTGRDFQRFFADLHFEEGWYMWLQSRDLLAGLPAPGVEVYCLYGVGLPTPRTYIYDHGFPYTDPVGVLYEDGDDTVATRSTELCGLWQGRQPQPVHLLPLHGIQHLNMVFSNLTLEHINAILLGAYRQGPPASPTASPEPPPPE
# Target: T1, lecithin:cholesterol acyltransferase …
# Assay: cell-based or functional assay
row,Binder,ACTIVITY (%) LCAT [%]
1,PVLELFDNLLEKLLEALQKKLR [peptide 178],9
2,Ac-PVLDLFRELLEELKQKLK-NH2 [peptide 193],96
3,PVLELFENLLERWLDALQKKLK [peptide 181],8
4,PVLELFENLLEKLLEALQKKLK [peptide 182],7
5,PVLELFDNLLDKLLDALQKKLR [peptide 180],8
6,PVLELFKELLEELKQKLK [peptide 216],35
7,Ac-PVLDLF[Orn]ELLEEL[Orn]Q[Orn]LK-NH2 (SMILES CC(=O)N1CCC[C@H]1C(=O)N[C@H](C(=O)N[C@@H](CC(C)C)C(=O)N[C@@H](CC(=O)O)C(=O)N[C@@H](CC(C)C)C(=O)N[C@@H](Cc1ccccc1)C(=O)N[C@@H](CCCN)C(=O)N[C@@H](CCC(=O)O)C(=O)N[C@@H](CC(C)C)C(=O)N[C@@H](CC(C)C)C(=O)N[C@@H](CCC(=O)O)C(=O)N[C@@H](CCC(=O)O)C(=O)N[C@@H](CC(C)C)C(=O)N[C@@H](CCCN)C(=O)N[C@@H](CCC(N)=O)C(=O)N[C@@H](CCCN)C(=O)N[C@@H](CC(C)C)C(=O)N[C@@H](CCCCN)C(N)=O)C(C)C) [peptide 212],43
8,PVLDLLRELLNELLEALKQKLK [peptide 16],59
9,GVLELFLNLLERLLDALQKKLK [peptide 177],10
10,Ac-NVLDLFRELLEELKQKLK-NH2 [peptide 200],75
11,Ac-PVLDLFRELLEELKNKLK-NH2 [peptide 196],81
12,Ac-GVLDLFRELLEELKQKLK-NH2 [peptide 198],80
13,Ac-DVLDLFRELLEELKQKLK-NH2 [peptide 221],12
14,Ac-[dP]VLDLFRELLEELKQKLK-NH2 (SMILES CC(=O)N1CCC[C@@H]1C(=O)N[C@H](C(=O)N[C@@H](CC(C)C)C(=O)N[C@@H](CC(=O)O)C(=O)N[C@@H](CC(C)C)C(=O)N[C@@H](Cc1ccccc1)C(=O)N[C@@H](CCCNC(=N)N)C(=O)N[C@@H](CCC(=O)O)C(=O)N[C@@H](CC(C)C)C(=O)N[C@@H](CC(C)C)C(=O)N[C@@H](CCC(=O)O)C(=O)N[C@@H](CCC(=O)O)C(=O)N[C@@H](CC(C)C)C(=O)N[C@@H](CCCCN)C(=O)N[C@@H](CCC(N)=O)C(=O)N[C@@H](CCCCN)C(=O)N[C@@H](CC(C)C)C(=O)N[C@@H](CCCCN)C(N)=O)C(C)C) [peptide 214],39
15,PLLELFENLLEKLLDALQKKLK [peptide 183],6
16,Ac-PLLDLFRELLEELKQKLK-NH2 [peptide 197],81
17,PVLDLFRELLEELKQKLK [peptide 210],46
18,PVLELFLNLLERLLDAWQKKLK [peptide 184],4
19,Ac-PVLDLFRELLNELLQKLK-NH2 [peptide 218],29
20,PVLDAFRELLEALLQLKK [peptide 222],8
21,Ac-PVLDLFRELGEELKQKLK-NH2 [peptide 227],0
22,Ac-PVLELLKELLEELKQKLK-NH2 [peptide 207],50
23,Ac-PVLDLFRELLEEL[Orn]Q[Orn]L[Orn]-NH2 (SMILES CC(=O)N1CCC[C@H]1C(=O)N[C@H](C(=O)N[C@@H](CC(C)C)C(=O)N[C@@H](CC(=O)O)C(=O)N[C@@H](CC(C)C)C(=O)N[C@@H](Cc1ccccc1)C(=O)N[C@@H](CCCNC(=N)N)C(=O)N[C@@H](CCC(=O)O)C(=O)N[C@@H](CC(C)C)C(=O)N[C@@H](CC(C)C)C(=O)N[C@@H](CCC(=O)O)C(=O)N[C@@H](CCC(=O)O)C(=O)N[C@@H](CC(C)C)C(=O)N[C@@H](CCCN)C(=O)N[C@@H](CCC(N)=O)C(=O)N[C@@H](CCCN)C(=O)N[C@@H](CC(C)C)C(=O)N[C@@H](CCCN)C(N)=O)C(C)C) [peptide 211],45
24,PVLDLFREGWEELKQKLK [peptide 224],8
25,PVLELFENLLERLLDALQ[Orn][Orn]L[Orn] [peptide 185],3
26,PVLDAFRELLEALAQLKK [peptide 223],8

row,Binder,ACTIVITY (%) LCAT [%]
1,PVLDLFRELLELLKQKLK [peptide 217],30
2,PVLDAFRELGEALLQLKK [peptide 226],1
3,PVLELFKELLQELLEALKQKLK [peptide 17],59
4,PVLDAFRELAEALAQLKK [peptide 225],1
5,Ac-PLLELLKELLEELKQKLK-NH2 [peptide 206],57
6,PVLDLFRELLNELLQKLK [peptide 209],47
7,[dP]VLDLFRELLNEGLEALKQKLK [peptide 19],58
8,Ac-PALELFKDLLEELRQKLR-NH2 [peptide 202],70
9,Ac-PVLDLFRELLEEWKQKLK-NH2 [peptide 215],38
10,GVLDLFRELLNELLEALKQKLKK [peptide 2],105
11,Ac-PVLDLLRELLEELKQKLK-NH2 [peptide 191],100
12,PVLDLFRELLEELQKKLK [peptide 220],22
13,GVLDLFRELLNELLEALKQKLK [peptide 18],58
14,Ac-PALELFKDLLEEFRQRLK-NH2 [peptide 213],42
15,Ac-AVLDLFRELLEELKQKLK-NH2 [peptide 203],66
16,Ac-PVLELFKELLEELKQKLK-NH2 [peptide 195],87
17,PVLELFDNLLERLLDALQKKLK [peptide 179],8
18,Ac-PVLDLFRELWEELKQKLK-NH2 [peptide 199],76
19,PVLDLFRELLNELWQKLK [peptide 219],24
20,Ac-PVLDLFKELLEELKQKLK-NH2 [peptide 192],100
21,Ac-PALELFKDLLEELRQRLK-NH2 [peptide 208],48
22,Ac-PVLDLFREWLEELKQKLK-NH2 [peptide 205],60
23,Ac-PVLDFFRELLEELKQKLK-NH2 [peptide 204],63
24,Ac-PLLDLFKELLEELKQKLK-NH2 [peptide 201],74
25,Ac-PVLELFRELLEELKQKLK-NH2 [peptide 194],88
